Measured values published in US9499823B2, “Constructs expressing chimeric receptors and use thereof for the controlled activation of defence response to pathogens in plants” (priority 2009, dated 2016).
“Also recorded” adds a separate entry of the source.

Legend:
[1] = test system: ethylene biosynthesis in tobacco leaves; test: Induction of ethylene biosynthesis in agroinfiltrated tobacco leaf explants; format: cell-based, Nicotiana tabacum; conditions: elfl8 10 μM, 2 h
Protocol: F) Induction of ethylene biosynthesis in agroinfiltrated tobacco leaves expressing the fluorescent EFR, FLS2, TMC, eJMC and eJMC^Y859A. NC: negative control, represented by agroinfiltrated leaf tissues expressing fluorescent EFR or FLS2 and elicited with flg22 or elfl8, respectively. Results are averages±standard error (n=3).
Excised infiltrated leaf sectors were stimulated for 2 h with water or the elicitor ([…] and 100 μg/ml for OGs). Values are means±s.e.m. (N=3).
E) Induction of ethylene biosynthesis in agroinfiltrated tobacco leaves expressing EFR, WAK1, WEG and EWAK. Each construct was stimulated for 2 h with elfl8 (10 μM) or OGs (100 μg/mL). NC: negative control, represented by agroinfiltrated leaf tissue expressing EFR or FLS2 when OGs or elfl8, respectively, were used for elicitation. Error bars indicate the standard error of three independent replicates.
(A) Induction of ethylene biosynthesis in agroinfiltrated tobacco explants expressing EFR, WAK1, WEG and EWAK. […] Agroinfiltrated leaf tissues expressing EFR or WEG and elicited with OGs or elfl8 respectively, represented our negative control. Values are means±s.e.m. (N=3). (B) Elicitor-induced gene expression in untransformed Col-0 and Col-0 efr plants, and in transgenic Arabidopsis Col-0 efr plants stably expressing WEG. Accumulation of At3g22270 and At4g37640 transcripts was analysed by semi-quantitative PCR, using the UBQ5 gene for normalization. Adult leaves were syringe-infiltrated with water, OGs (25 μg/ml) or elfl8 (10 μM) for 3 h. The experiment was repeated three times with similar results. The same experiment was performed in a second independent transgenic line expressing WEG with similar results.
Approximately 150 mg of tobacco agroinfiltrated leaf were cut in small slices and extensively washed with sterile distilled water. The explants were placed in sealed 10 mL flasks containing 2 mL of sterile water alone or supplemented with 100 mg L^−1 OGs, or 1 μM flg22 or 10 μM elfl8. 450 μl headspace samples were withdrawn from the vial after 2 h treatment and analyzed by gas chromatography-mass spectrometry using an Agilent 6850A gas chromatograph coupled to a 5973N quadrupole mass selective detector (Agilent Technologies, Palo Alto, Calif., USA). Chromatographic separations were carried out an HP Plot-Q fused-silica capillary column (30 m×0.32 mm i.d.) coated with polystyrene-divinylbenzene (film thickness 0.20 μm) as stationary phase. Injection mode: splitless at a temperature of 220° C. The initial temperature of the oven was held at 50° C. for 8 min then ramped to 220° C. at a rate of 15° C./min and held for 5 min. Helium was used as carrier gas at a constant flow of 1.0 ml/min. Mass spectra were collected both in full scan and in SIM mode monitoring the ions m/z m/z 26, m/z 27 and m/z 28 (ionization energy 70 eV; ion source 280° C.; ion source vacuum 10^−5 Torr).

[2] = test system: Pseudomonas syringae DC3000; test: Pseudomonas DC3000 infection of Arabidopsis Ws-0 plants by spraying; format: in vivo; conditions: transgenic Ws-0 plants vs Ws-0 wild type, 4 days post infection
From the text: C) Pseudomonas DC3000 infections. (Left Panel) Symptoms disease of wild type and transformed plants after 4 days post infection. (Right panel) Growth of Pseudomonas syringae DC3000 after 4 day post infection. ***, p<0.005.
The authors therefore infected A. thaliana plants by spraying Pst DC3000 bacteria onto leaf surfaces. […] Higher resistance of eJMC plants, compared to Ws-0 wild-type plants, was found in all of three independent experiments.

[3] = test system: oxidative burst in tobacco leaves; test: Oxidative burst, luminol-dependent photon counting in agroinfiltrated tobacco leaf slices; format: cell-based, Nicotiana tabacum; conditions: 10 μM elfl8, after 15 min
Protocol: D) Oxidative burst in tobacco leaves transiently expressing eJMC, EFR and EWAK. Photon counting was realized using tobacco leaves slices in a solution of luminol and peroxidase, during treatment with 10 μM elfl8. eJMC- and EFR-expressing explants were used as a negative and a positive control, respectively. Experiment was repeated at least 6 times on two independent replicated.
(C) Oxidative burst in agroinfiltrated tobacco leaves expressing EWAK. Leaves expressing eJMC and EFR were used as a negative and a positive control, respectively. The burst was measured by photon counting using leaf slices incubated in a solution containing 10 μM elfl8, luminol and peroxidase. The experiment was repeated at least 6 times with two independent replicates.
(§1) 3,3′-diaminobenzidine (DAB) staining, callose deposition and gene resistance analysis were assayed as described (Galletti et al., 2008). For measuring active oxygen species released by tobacco agroinfiltrated plants after elicitor treatment, the authors used a modified luminol-dependent assay (Gomez et al., 1999). Slices, corresponding to approximately 30 mg fresh weight, were transferred to assay tubes containing 1 μM flg22 or 10 μM elfl8 in aqueous solution supplied with 40 μM luminol (SIGMA). Chemo-luminescence was measured in a liquid scintillation counter (LS-6500, Beckman) after 5 and 15 min upon addition of elicitors.

[4] = test system: Agrobacterium tumefaciens GV3101; test: Growth of Agrobacterium in N. tabacum tissues transiently expressing receptor proteins; format: in vivo; conditions: 24 h after inoculation, tobacco tissues expressing the receptor, p<0.005
Protocol: F) Growth of Agrobacterium in N. tabacum tissues transiently expressing receptor proteins. Tobacco leaves were infiltrated with Agrobacterium expressing the indicated receptors and the number of Agrobacterium colony-forming units (c.f.u.) in the tissues was analyzed soon after infiltration (white bars) and 24 h (gray bars). EFR and eJMC were used as positive and negative controls, respectively. For each receptor, three samples were analyzed in five independent experiments. *, p<0.005.
(§2) (A) Growth of A. tumefaciens in N. tabacum tissues transiently expressing receptor proteins. Tobacco leaves were infiltrated with Agrobacterium carrying the indicated receptor constructs and the number of Agrobacterium colony-forming units (c.f.u.) in the tissues was analyzed immediately after infiltration (white bars) and after 24 h (gray bars). EFR and eJMC were used as positive and negative controls, respectively. For each receptor, three samples were analyzed in five independent experiments. Asterisks indicate statistically significant differences against control (Col-0 for WAK1 plants and Col-0 efr for WEG and EWAK plants). (B) Lesion development in Arabidopsis wild type (Col-0) and mutant Col-0 efr plants and in transgenic plants expressing WAK1, WEG and EWAK plants inoculated with B. cinerea at 48 h post-inoculation. Values are means±s.e.m. of at least 16 lesions. The same experiment was performed in a second independent transgenic line expressing WAK1 with similar results. Asterisks indicate statistically significant differences against control (Col-0 for WAK1 plants and Col-0 efr for WEG and EWAK plants).
(§3) Agrobacterium tumefaciens GV3101 strain infections was performed as described in Katagiri et al., (2002) and using a concentration of Agrobacterium corresponding at an OD600 of 1.0 in 10 mM MgCl2 and 600 μM acetosyringone. After 24 h of infiltration, serial dilution of Agrobacterium colonies were deposited on LB agar supplemented with gentamycin and rifampicin and grown for 2-3 days at 28° C. in the dark. At least 5 independent plants and 3 different leaves by plant, were used per experiment. Pectobacterium carotovorum subsp. carotovorum infections Pectobacterium carotovorum subsp. carotovorum (formely Erwinia carotovora; Gardan et al., 2003) (strain DMSZ 30169) was obtained from DSMZ GmbH (Germany). A liquid colture using 10 ml LB medium was prepared. After 16 h of growth at 28° C. on rotary shaker at 250 rpm, bacterial cells were harvested by centrifugation and the pellet was resuspended in 50 mM potassium phosphate buffer pH 7.0 corresponding to 5×10^7 CFU/ml.

[5] = test system: B. cinerea; test: Lesion development in Arabidopsis plants inoculated with B. cinerea; format: in vivo; conditions: transgenic Arabidopsis vs Col-0 or Col-0 efr, 48 h post-inoculation
Protocol: as §2

[6] = test system: Pectobacterium carotovorum subsp. carotovorum; test: Infection assay with Pectobacterium carotovorum on transgenic Arabidopsis leaves; format: in vivo; conditions: transgenic Arabidopsis vs Col-0 or Col-0 efr, 24 h, 5×10^7 CFU/ml
Protocol: Inoculum concentration was 5×10^7 CFU/ml). Values are means±SE of at least 16 lesions. Asterisks indicate statistically significant differences against control plants (Col-0 or Col-0 efr), according to Student's t test (*, p<0.0005).
as §3, with “After 16 h of growth at 28° C. on rotary shaker at 250 rpm, bacterial cells were harvested by centrifugation and the pellet was resuspended in 50 mM potassium phosphate buffer pH 7.0 corresponding to 5×10^7 CFU/ml.” left out
For infection, fully developed leaves of 4 week old Arabidopsis plants were detached and placed in 0.8% agar Petri dishes. […] Symptoms were scored measuring the area of macerated tissue after 24 hour post inoculation at 22° C. and 12 h photoperiod. Area was measured by ImageJ software. […]

[7] = test system: transgenic Arabidopsis leaves; test: Constitutive activation of defense responses (H2O2, callose) in transgenic plants; format: cell-based, Arabidopsis thaliana; conditions: no elicitor
Protocol: Leaves were stained with 3,3′-diaminobenzidine (DAB) for H2O2 visualization (upper panel) and with aniline blue for callose visualization (lower panel).
as §1

B1: EWAK: chimera: EFR ectodomain fused to the TM-iJM-kinase portion of WAK1, GFP-fused (protein)
chain: RFSNETDMQALLEFKSQVSENNKREVLASWNHSSPFCNWIGVTCGRRRERVISLNLGGFKLTGVISPSIGNLSFLRLLNLADNSFGSTIPQKVGRLFRLQYLNMSYNLLEGRIPSSLSNCSRLSTVDLSSNHLGHGVPSELGSLSKLAILDLSKNNLTGNFPASLGNLTSLQKLDFAYNQMRGEIPDEVARLTQMVFFQIALNSFSGGFPPALYNISSLESLSLADNSFSGNLRADFGYLLPNLRRLLLGTNQFTGAIPKTLANISSLERFDISSNYLSGSIPLSFGKLRNLWWLGIRNNSLGNNSSSGLEFIGAVANCTQLEYLDVGYNRLGGELPASIANLSTTLTSLFLGQNLISGTIPHDIGNLVSLQELSLETNMLSGELPVSFGKLLNLQVVDLYSNAISGEIPSYFGNMTRLQKLHLNSNSFHGRIPQSLGRCRYLLDLWMDTNRLNGTIPQEILQIPSLAYIDLSNNFLTGHFPEEVGKLELLVGLGASYNKLSGKMPQAIGGCLSMEFLFMQGNSFDGAIPDISRLVSLKNVDFSNNNLSGRIPRYLASLPSLRNLNLSMNKFEGRVPTTGVFRNATAVSVFGNTNICGGVREMQLKPCIVQASPRKRKPLSVRKKVVSGWTTILLVTTIGFLVILLGVACIQQRMKHLKDTKLREQFFEQNGGGMLTQRLSGAGPSNVDVKIFTEDGMKKATNGYAESRILGQGGQGTVYKGILPDNSIVAIKKARLGDSSQVEQFINEVLVLSQINHRNVVKLLGCCLETEVPLLVYEFITNGTLFDHLHGSMIDSSLTWEHRLKIAIEVAGTLAYLHSSASIPIIHRDIKTANILLDVNLTAKVADFGASRLIPMDKEELETMVQGTLGYLDPEYYNTGLLNEKSDVYSFGVVLMELLSGQKALCFKRPQSSKHLVSYFATATKENRLDEIIGGEVMNEDNLKEIQEAARIAAECTRLMGEERPRMKEVAAKLEALRVEKTKHKWSDQYPEENEHLIGGHILSAQGETSSSIGYDSIKNVAILDIETGR
modifications: left off: large carriers
[1]
  ethylene accumulation upon stimulation with elfl8: did not
[2]
  development of disease symptoms / susceptibility to Pst DC3000: confers resistance
[3]
  oxidative burst upon treatment with elfl8: produced an oxidative burst; also recorded: robust oxidative burst
[4]
  decrease in the number of living Agrobacterium cells: 30%
[5]
  resistance to B. cinerea infection: not
[6]
  resistance to Pectobacterium carotovorum subsp. carotovorum: increased resistance; also recorded: confers resistance
[7]
  constitutive activation of defense responses (H2O2 levels, callose deposits): do not show constitutive activation of defense responses
